The source of these data is US9403875B2, “Cage-like bifunctional chelators, copper-64 radiopharmaceuticals and PET imaging using the same” (UNIVERSITY OF SOUTHERN CALIFORNIA, priority 2009, dated 2016).

Series [1] can be described thus: Metabolic stability in U87 MG tumor-bearing mouse (radio-HPLC of blood and tissue homogenates). The class given is in vivo, athymic nude mouse. Conditions: 1 h post injection, i.v. The procedure:
The blood was collected and immediately centrifuged for 5 min at 13,200 rpm, and the upper serum solution was added to 100 μL PBS solution containing 50% TFA, followed by mixing and centrifugation for 10 min, and the upper solution was then taken out and filtered for HPLC analysis. Liver, kidneys, and tumor were homogenized using a homogenizer, suspended in 1 mL of PBS buffer, and centrifuged for 10 min at 14,000 rpm, respectively. For each sample, after removal of the supernatant, the solution was added to 100 μL PBS solution containing 50% TFA, followed by mixing and centrifugation for 10 min, and the upper solution was then taken and filtered for HPLC analysis. Radioactivity was monitored using a solid-state radiation detector. The eluent was also collected using a fraction collector (1.5 min/fraction) and the radioactivity of each fraction was measured with the γ counter.

Series [2] can be described thus: Biodistribution by direct tissue sampling in U87 MG tumor bearing nude mice. Conditions: athymic nude, mouse, in vivo, 0.37 MBq, total radioactivity, direct tissue sampling, 20 h p.i. The procedure:
All mice were sacrificed and dissected at 20 h after the injection of the tracers. Blood, U87 MG tumor, major organs, and tissues were collected and weighed wet. The radioactivity in the tissues was measured using the gamma counter. The results were presented as percentage injected dose per gram of tissue (% ID/g). For each mouse, the radioactivity of the tissue samples was calibrated against a known aliquot of the injected activity. Mean uptake (% ID/g) for each group of animals was calculated with standard deviations.
To validate the accuracy of small animal PET quantification, we also performed a biodistribution experiment by using the direct tissue sampling technique. The data shown as the percentage administered activity (injected dose) per gram of tissue (% ID/g) in FIG. 19A. Both ^64Cu-AmBaSar-RGD and ^64Cu-DOTA-RGD mainly accumulated in kidneys, liver, stomach, intestine, and tumor. […] This difference was consistent with the excretion pattern from the microPET imaging results.

A short description of series [3]: In vitro stability of 64Cu-labeled RGD conjugates in PBS, FBS and mouse serum. The format is in vitro ADME. Conditions: 37° C., 24 h incubation; for remaining at 24 h, 3.7 MBq/mL: read-out: radiochemical purity / tracer remained intact. The procedure:
After incubated at 37° C. for 3, 18, and 24 h, an aliquot of the mixture was removed from the PBS solution and the radiochemical purity was determined with HPLC. For the solution of FBS and mouse serum, the aliquots were added to 100 μL PBS with 50% TFA. After centrifugation, the upper solution was taken and filtered for HPLC analysis.

Series [4] concerns U87 MG human glioma xenograft tumors. In words: MicroPET imaging of U87 MG tumor-bearing nude mice. The class given is in vivo, athymic nude mice. Conditions: microPET. As for the experimental part:
(§1) Athymic nude mice (about 10-20 weeks old, with a body weight of 25-35 g) were obtained from Harlan (Charles River, Mass.). All animal experiments were performed according to a protocol approved by University of Southern California Institutional Animal Care and Use Committee. The U87 MG human glioma xenograft model was generated by subcutaneous injection of 5×10^6 U87 MG human glioma cells into the front flank of athymic nude mice. The tumors were allowed to grow 3-5 weeks until 200-500 mm^3 in volume. Tumor growth was followed by caliper measurements of the perpendicular dimensions.
(§2) MicroPET scans and imaging analysis were performed using a rodent scanner (microPET R4; Siemens Medical Solutions) as previously reported (26). Li, Z., Cai, W., Cao, Q., Chen, K., Wu, Z., He, L., and Chen, X. (2007) ^64Cu-labeled tetrameric and octameric RGD peptides for small-animal PET of tumor αvβ3 integrin expression. J Nucl Med 48, 1162-71. […] Ten minute static scans were acquired at 1, 2, 4, and 20 h post injection. The images were reconstructed by a 2-dimensional ordered-subsets expectation maximum (OSEM) algorithm. For each microPET scan, regions of interest were drawn over the tumor, normal tissue, and major organs on the decay-corrected whole-body coronal images. The radioactivity concentration (accumulation) within the tumor, muscle, liver, and kidneys were obtained from the mean value within the multiple regions of interest and then converted to % ID/g.

Series [5] is described as follows: MicroPET imaging of U87 MG tumor-bearing nude mice. Conditions: athymic nude, mouse, in vivo, iv, 11.1 MBq, total radioactivity, microPET; for tissue uptake at 1 h: 1 h p.i.; for tissue uptake at 2 h: 2 h p.i.; for tissue uptake at 4 h: 4 h p.i.; for tissue uptake at 20 h: 20 h p.i. The format is in vivo, athymic nude mice. The procedure: as §1, §2
In series [6] the test system is U87 MG human glioblastoma cell line (integrin αvβ3-positive). Description: Cell uptake study in U87 MG cells. The note with it: blocking with excess cold cyclic RGD. The format is cell-based. As for the experimental part:
U87 MG human glioblastoma cell line (integrin αvβ3-positive) was obtained from the American Type Culture Collection (ATCC, Manassas, Va.) and maintained under standard conditions according to ATCC as following: The U87 MG glioma cells were grown in Gibco's Dulbecco's medium supplemented with 10% fetal bovine serum (FBS), 100 IU/mL penicillin, and 100 μg/mL streptomycin (Invitrogen Co, Carlsbad, Calif.), at 37° C. in humidified atmosphere containing 5% CO2. The U87 MG glioma cells were grown in culture until sufficient cells were available.
The cell uptake study was performed as described in the literature with some modifications. […] The tumor cells were then washed three times with chilled PBS and harvested by 0.1 N NaOH solution containing 0.5% sodium dodecyl sulfate (SDS). The cell suspensions were collected and measured in the gamma counter.

Series [7] can be described thus: Log P of 64Cu-labeled RGD conjugates (1-octanol/PBS). The format is physicochemical. Conditions: pH 7.4, read-out: log P (octanol/water partition coefficient). As for the experimental part: After vigorously vortexing for 10 min, the vial was centrifuged for 5 min to ensure the complete separation of layers. Then, 3×10 μL of each layer was pipetted into other test tubes and radioactivity was measured using a gamma counter (Perkin-Elmer Packard Cobra). The measurement was repeated three times, and Log P values were calculated according to a known formula.

Structures are written as SMILES. Read-outs that look alike come from different tables or passages of the source. Bounds are passed on as bounds.

For `N=C(N)NCCC[C@@H]1NC(=O)[C@H](CCCCNC(=O)c2ccc(CNC34CNCCNCC(N)(CNCCNC3)CNCCNC4)cc2)NC(=O)[C@@H](Cc2ccc(O)cc2)NC(=O)[C@H](CC(=O)O)NC(=O)CNC1=O` [^64Cu-AmBaSar-RGD, metal not drawn], in series [1], the “amount of intact tracer in the blood” value is listed as “approximately 88%”, the “amount of intact tracer in the kidneys” value is on record as approximately 98%, the “amount of intact tracer in the liver” value is reported as approximately 98% and the “amount of intact tracer in the tumor” value is approximately 95%. Further, in series [2] (read-out: kidneys uptake), the tissue uptake at 20 h came out at 1.51 ± 0.27 %ID/g. Moreover, in series [2] (read-out: liver uptake), the tissue uptake at 20 h stood at 0.55 ± 0.06 %ID/g. In series [3] (PBS or FBS), the “radiochemical purity / tracer remained intact” value is reported as “more than 97%”. In series [3] (mouse serum), the “radiochemical purity / tracer remained intact” value is more than 95% and the remaining at 24 h, 3.7 MBq/mL is more than 95%. In addition, in series [3] (serum, pH 7.4, PBS or FBS), the remaining at 24 h, 3.7 MBq/mL is more than 97%. Also, the “uptake in U87 MG tumors” value in series [4] (1 h p.i.) is 2.04±0.14 % ID/g. Further, the “uptake in U87 MG tumors” value in series [4] (4 h p.i.) is listed as 1.87±0.11 % ID/g. The “uptake in U87 MG tumors” value in series [4] (20 h p.i.) is 0.97±0.05 % ID/g. In series [5] (read-out: liver uptake), the tissue uptake at 1 h worked out at 0.89 ± 0.13 %ID/g, the tissue uptake at 2 h was found to be 0.76 ± 0.13 %ID/g, the tissue uptake at 4 h is 0.75 ± 0.14 %ID/g and the tissue uptake at 20 h was found to be 0.64 ± 0.06 %ID/g. Further, in series [5] (read-out: renal uptake), the tissue uptake at 1 h turned out to be 2.83 ± 0.77 %ID/g, the tissue uptake at 2 h came out at 2.68 ± 0.55 %ID/g, the tissue uptake at 4 h stood at 2.49 ± 0.5 %ID/g and the tissue uptake at 20 h was found to be 1.43 ± 0.35 %ID/g. Further, the “binding to U87 MG cells in presence of excess cold cyclic RGD peptide” value in series [6] is recorded as “efficiently blocked”. For the same molecule, the logP in series [7] is -2.44 ± 0.12.
